Measured values from paper PMC8610599.

Experiments:
Experiment in all cases: BLI
[1] = molecular target: PGT121; conditions: parent: est. 0.20; read off a plot
[2] = molecular target: PGT151; conditions: parent: est. 1.6; read off a plot
[3] = molecular target: PGDM1400; conditions: parent: est. 0.40; read off a plot
[4] = molecular target: VRC01; conditions: parent: est. 0.38; read off a plot

| Substance | response (AUC (2G12 normalized)) [1] | response (AUC (2G12 normalized)) [2] | response (AUC (2G12 normalized)) [3] | response (AUC (2G12 normalized)) [4] |
| --- | --- | --- | --- | --- |
| LAI SOSIP.664 trimer F53V | 0.18 | 1.5 | 0.33 | 0.45 |
| LAI SOSIP.664 trimer F53V; Q567R | 0.22 | 1.5 | 0.35 | 0.4 |
| LAI SOSIP.664 trimer Q567R | 0.22 | 1.6 | 0.3 | 0.42 |
| LAI SOSIP.664 trimer Q590A | 0.18 | 1.5 | 0.35 | 0.62 |
| LAI SOSIP.664 trimer Q590A; S164G | 0.17 | 1.4 | 0.2 | 0.7 |
| LAI SOSIP.664 trimer R585F | 0.15 | 1.5 | 0.35 | 0.4 |
| LAI SOSIP.664 trimer R585F; Q567R | 0.17 | 1.5 | 0.35 | 0.4 |
| LAI SOSIP.664 trimer S164G | 0.22 | 1.5 | 0.25 | 0.47 |
| LAI SOSIP.664 trimer Y586W | 0.18 | 1.3 | 0.42 | 0.88 |
| LAI SOSIP.664 trimer Y586W; Q567R | 0.2 | 1.5 | 0.3 | 0.55 |
